Laboratory results from publication PMC8270960, “Native flagellar MS ring is formed by 34 subunits with 23-fold and 11-fold subsymmetries” (Nature Communications, 2021).
Substitutions are numbered along the chain they refer to. Names and notes keep the numbering of the source. Values joined by “and” are separate entries in the source; they are usually repeats but may differ in a detail not shown here. Equal entries are not always repeated.

B1: FliF of the native flagellar basal body (native MS ring) (natural protein)
chain: MSATASTATQPKPLEWLNRLRANPRIPLIVAGSAAVAIVVAMVLWAKTPDYRTLFSNLSDQDGGAIVAQLTQMNIPYRFANGSGAIEVPADKVHELRLRLAQQGLPKGGAVGFELLDQEKFGISQFSEQVNYQRALEGELARTIETLGPVKSARVHLAMPKPSLFVREQKSPSASVTVTLEPGRALDEGQISAVVHLVSSAVAGLPPGNVTLVDQSGHLLTQSNTSGRDLNDAQLKFANDVESRIQRRIEAILSPIVGNGNVHAQVTAQLDFANKEQTEEHYSPNGDASKATLRSRQLNISEQVGAGYPGGVPGALSNQPAPPNEAPIATPPTNQQNAQNTPQTSTSTNSNSAGPRSTQRNETSNYEVDRTIRHTKMNVGDIERLSVAVVVNYKTLADGKPLPLTADQMKQIEDLTREAMGFSDKRGDTLNVVNSPFSAVDNTGGELPFWQQQSFIDQLLAAGRWLLVLVVAWILWRKAVRPQLTRRVEEAKAAQEQAQVRQETEEAVEVRLSKDEQLQQRRANQRLGAEVMSQRIREMSDNDPRVVALVIRQWMSNDHE
notes: source: endogenous, basal body purified from Salmonella HK1003 (sucrose density gradient); copies: 34
B2: full-length Salmonella FliF (MS ring, dataset 1, from pKOT112) (natural protein)
chain: B1 chain
notes: also called MS ring formed by full-length FliF; FliF ring dataset 1; source: E. coli BL21 (DE3) carrying pKOT112, MS ring purified from the membrane fraction (sucrose gradient, LMNG); copies: 34
B3: FliF(L253A), overexpressed in E. coli (natural protein)
chain: B1 chain with L253A
notes: source: E. coli, overexpressed, MS rings purified
B4: FliF(V266A), overexpressed in E. coli (natural protein)
chain: B1 chain with V266A
notes: as for B3
B5: full-length Salmonella FliF (MS ring, dataset 2, from pKOT105) (natural protein)
chain: B1 chain
notes: also called FliF overexpressed from another construct; FliF ring dataset 2; source: E. coli BL21 (DE3) carrying pKOT105, MS ring purified from the membrane fraction (sucrose gradient, LMNG); copies: 34
B6: FliF(I252R), overexpressed in E. coli (natural protein)
chain: B1 chain with I252R
notes: as for B3
B7: FliF(L253R), overexpressed in E. coli (natural protein)
chain: B1 chain with L253R
notes: as for B3
B8: FliF(I252A), overexpressed in E. coli (natural protein)
chain: B1 chain with I252A
notes: as for B3
B9: FliF(V266R), overexpressed in E. coli (natural protein)
chain: B1 chain with V266R
notes: as for B3
B10: FliG of the C ring of the native basal body (wild-type, CCW motor) (natural protein)
chain: MSNLSGTDKSVILLMTIGEDRAAEVFKHLSTREVQALSTAMANVRQISNKQLTDVLSEFEQEAEQFAALNINANEYLRSVLVKALGEERASSLLEDILETRDTTSGIETLNFMEPQSAADLIRDEHPQIIATILVHLKRSQAADILALFDERLRHDVMLRIATFGGVQPAALAELTEVLNGLLDGQNLKRSKMGGVRTAAEIINLMKTQQEEAVITAVREFDGELAQKIIDEMFLFENLVDVDDRSIQRLLQEVDSESLLIALKGAEPPLREKFLRNMSQRAADILRDDLANRGPVRLSQVENEQKAILLIVRRLAETGEMVIGSGEDTYV
notes: source: endogenous, basal body purified from Salmonella HK1003 (sucrose density gradient)
B11: FliF_(1-503) (domain or fragment)
chain: MSATASTATQPKPLEWLNRLRANPRIPLIVAGSAAVAIVVAMVLWAKTPDYRTLFSNLSDQDGGAIVAQLTQMNIPYRFANGSGAIEVPADKVHELRLRLAQQGLPKGGAVGFELLDQEKFGISQFSEQVNYQRALEGELARTIETLGPVKSARVHLAMPKPSLFVREQKSPSASVTVTLEPGRALDEGQISAVVHLVSSAVAGLPPGNVTLVDQSGHLLTQSNTSGRDLNDAQLKFANDVESRIQRRIEAILSPIVGNGNVHAQVTAQLDFANKEQTEEHYSPNGDASKATLRSRQLNISEQVGAGYPGGVPGALSNQPAPPNEAPIATPPTNQQNAQNTPQTSTSTNSNSAGPRSTQRNETSNYEVDRTIRHTKMNVGDIERLSVAVVVNYKTLADGKPLPLTADQMKQIEDLTREAMGFSDKRGDTLNVVNSPFSAVDNTGGELPFWQQQSFIDQLLAAGRWLLVLVVAWILWRKAVRPQLTRRVEEAKAAQEQAQVRQE
notes: also called C-terminally-truncated FliF fragment with 57 residues truncated; copies: 33

Legend:
[1] = molecular target: FliG ΔPAA of the C ring of the CW-locked basal body (Salmonella enterica serovar Typhimurium (in TM022)) (UniProt P0A1J9); assay: cryo-EM structure; end-on view cryoEM images of the C ring of purified wild-type (CCW) and CW mutant basal bodies; rotational symmetry of single particles by autocorrelation and Fourier transformation (98 and 75 particles)
[2] = molecular target: the molecule itself; assay: cryo-EM structure; 2D class averages of end-on views of the basal body (rivet) purified from Salmonella HK1003; rotational symmetry by autocorrelation and Fourier transformation; assembly formed in cells, purified as a whole
[3] = molecular target: the molecule itself; assay: cryo-EM structure; MS ring of full-length FliF (dataset 1, pKOT112) in Buffer S with 0.05% LMNG; 2D classes and 3D refinement with C34 symmetry, 3.7 Å
[4] = molecular target: the molecule itself; assay: negative-stain EM; MS rings purified from E. coli cells overexpressing mutant variants of FliF, observed by negative staining EM
[5] = molecular target: the molecule itself; assay: cryo-EM structure; MS ring of full-length FliF (dataset 2, pKOT105); 3D refinement with C1, C11 and C34 symmetry (12, 9.0 and 7.4 Å)
[6] = molecular target: B1; assay: cryo-EM structure; 2D class averages of end-on views of the basal body (rivet) purified from Salmonella HK1003; rotational symmetry by autocorrelation and Fourier transformation; assembly formed in cells, purified as a whole; details: both partners purified
[7] = molecular target: the molecule itself; assay: cryo-EM structure; rings of FliF_(1-503) and FliF_(1-456) in Buffer S with 0.1% Triton-X100; 3D classification and reconstruction with C1 symmetry

Molecule	binding result [4]	also measured
FliG ΔPAA of the C ring of the CW-locked basal body (from UniProt P0A1J9 1-331) (natural protein)		stoichiometry N [1]: 33 -fold to 36 -fold (2×) and 34 -fold
B1		stoichiometry N [2]: 34 subunits
B2		stoichiometry N [3]: 34 subunits
B3	binds	
B4	binds	
B5		stoichiometry N [5]: 34 subunits
B6	binds	
B7	binds	
B8	binds	
B9	binds	
B10		binding result [6]: binds
B11		stoichiometry N [7]: 33 -fold
